# In patent US20170114100A1 (ALBERT EINSTEIN COLLEGE OF MEDICINE, published 2017):
# B1: BAX 4MA (C62S, C126S, V121C, I136C), internally cross-linked mutant (other)
# chain: MDGSGEQPRGGGPTSSEQIMKTGALLLQGFIQDRAGRMGGEAPELALDPVPQDASTKKLSESLKRIGDELDSNMELQRMIAAVDTDSPREVFFRVAADMFSDGNFNWGRVVALFYFASKLCLKALSTKVPELIRTCMGWTLDFLRERLLGWIQDQGGWDGLLSYFGTPTWQTVTIFVAGVLTASLTIWKKMG
# modifications: internal cross-link between the introduced cysteines (V121C, I136C), reduced by DTT
# notes: also called BAX 4MA dimer; 4MA monomer
# Molecular target: the molecule itself
# Assay: SEC dimerization assay (FIG. 4A)
protein,measurement,value
B1,binding result,binds
